Molecular target: T1, HSC70 (Homo sapiens, UniProt P11142)
T1 construct: made in house
Assay: ELISA binding of HSC70 to immobilized CFTR NBD1 and competition by soluble peptides
Details: immobilized NBD1 incubated at 30 °C, direct comparison with immobilized 1097-L; n = 3, p < 0.01
Experimental: HSC70, DJA1 and DJA2 were purified as His-tagged proteins, as described. HSC70 was also amplified by PCR with an N-terminal FLAG tag, inserted into pPROEXHTa (Invitrogen) and purified as described. HSC70 was stored in 100 mM KOAc, 20 mM HEPES-KOH pH 7.5, 5 mM MgOAC2 (buffer G), DJA1 and DJA2 in 500 mM NaCl, 20 mM HEPES-KOH pH 7.5, 5 mM MgOAC2 (buffer H). Avi-tagged CFTR NBD1 was purified as described.
For NBD1 binding, 100 nM of strep-tagged NBD1 in 100 µl of 150 mM NaCl, 50 mM Na2HPO4 pH 7.5, 1 mM ATP, and 40 µM DTT (buffer N), was bound to streptavidin plates for 1 hour at 4 °C with agitation. Plates were washed with PBST and incubated in buffer N at 30 °C in a water bath for 5 min. Then, plates were blocked in PBST containing 0.5% BSA, followed by the addition of HSC70 binding reactions, and detection as above.

T1 sequence (P11142 whole entry): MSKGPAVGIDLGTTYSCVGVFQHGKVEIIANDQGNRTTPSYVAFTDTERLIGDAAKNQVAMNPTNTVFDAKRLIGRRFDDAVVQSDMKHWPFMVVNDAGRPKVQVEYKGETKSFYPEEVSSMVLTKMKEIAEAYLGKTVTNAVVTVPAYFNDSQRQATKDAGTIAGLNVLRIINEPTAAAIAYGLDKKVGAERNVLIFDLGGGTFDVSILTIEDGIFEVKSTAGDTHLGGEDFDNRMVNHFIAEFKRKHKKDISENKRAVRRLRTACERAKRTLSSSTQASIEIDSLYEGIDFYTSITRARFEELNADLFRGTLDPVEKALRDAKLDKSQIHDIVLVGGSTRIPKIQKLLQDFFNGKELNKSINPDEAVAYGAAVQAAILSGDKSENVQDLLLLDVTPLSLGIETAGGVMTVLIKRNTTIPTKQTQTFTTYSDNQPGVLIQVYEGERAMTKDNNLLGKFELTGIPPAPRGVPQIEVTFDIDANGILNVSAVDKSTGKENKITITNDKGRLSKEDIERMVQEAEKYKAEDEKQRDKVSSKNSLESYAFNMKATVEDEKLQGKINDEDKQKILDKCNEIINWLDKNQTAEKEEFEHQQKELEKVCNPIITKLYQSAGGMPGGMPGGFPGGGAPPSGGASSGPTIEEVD

HSC70 binding to NBD1 relative to that observed for 1097-L: 73 ± 3%
B1: NBD1: Avi-tagged CFTR NBD1, purified and immobilized on streptavidin plates (protein)
chain: TTEVVMENVTAFWEEGFGELFEKAKQNNNNRKTSNGDDSLFFSNFSLLGTPVLKDINFKIERGQLLAVAGSTGAGKTSLLMVIMGELEPSEGKIKHSGRISFCSQFSWIMPGTIKENIIFGVSYDEYRYRSVIKACQLEEDISKFAEKDNIVLGEGGITLSGGQRARISLARAVYKDADLYLLDSPFGYLDVLTEKEIFESCVCKLMANKTRILVTSKMEHLKKADKILILHEGSSYFYGTFSELQNLQPDFSSKLMGCDSFDQFSAERRNSILTETLHRFSLEGDAPVS
modifications: left off: Avi-tag, end not stated, kept
notes: Avi-tagged CFTR NBD1, purified and immobilized on streptavidin plates

From publication PMC7060200, “Selective Binding of HSC70 and its Co-Chaperones to Structural Hotspots on CFTR” (Scientific Reports, 2020)
